# Test results reported in patent publication US6706266, “Oncostatin M antagonists” (SmithKline Beecham Corporation).
# Where “and” joins values, the source holds several entries; their conditions need not be identical. Equal values may be shown once.
# T1: gp130-Fc fusion protein (human, UniProt P40189 23-619)
# T1 construct: extracellular domain; not shown: Fc fragment of human IgG1
# T1 sequence (looked up): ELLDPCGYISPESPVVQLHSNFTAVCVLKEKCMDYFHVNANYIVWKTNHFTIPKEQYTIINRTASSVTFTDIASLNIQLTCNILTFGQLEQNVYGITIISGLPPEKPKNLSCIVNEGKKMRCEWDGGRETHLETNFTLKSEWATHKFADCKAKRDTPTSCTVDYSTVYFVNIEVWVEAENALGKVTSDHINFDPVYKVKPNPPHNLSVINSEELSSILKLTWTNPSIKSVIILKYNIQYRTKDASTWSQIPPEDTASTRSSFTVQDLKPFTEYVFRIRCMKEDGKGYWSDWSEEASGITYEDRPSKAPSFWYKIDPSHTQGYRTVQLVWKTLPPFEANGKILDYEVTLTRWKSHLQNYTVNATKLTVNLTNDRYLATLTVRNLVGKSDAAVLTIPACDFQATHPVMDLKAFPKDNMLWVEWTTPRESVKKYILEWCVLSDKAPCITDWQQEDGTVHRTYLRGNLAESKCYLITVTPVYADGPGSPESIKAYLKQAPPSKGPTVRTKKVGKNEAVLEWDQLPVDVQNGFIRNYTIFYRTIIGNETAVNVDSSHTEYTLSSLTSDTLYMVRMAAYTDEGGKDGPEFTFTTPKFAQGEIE
# T2: gp130 on HepG2 B6 cells (UniProt P40189 23-918, limits assumed)
# T2 sequence (looked up): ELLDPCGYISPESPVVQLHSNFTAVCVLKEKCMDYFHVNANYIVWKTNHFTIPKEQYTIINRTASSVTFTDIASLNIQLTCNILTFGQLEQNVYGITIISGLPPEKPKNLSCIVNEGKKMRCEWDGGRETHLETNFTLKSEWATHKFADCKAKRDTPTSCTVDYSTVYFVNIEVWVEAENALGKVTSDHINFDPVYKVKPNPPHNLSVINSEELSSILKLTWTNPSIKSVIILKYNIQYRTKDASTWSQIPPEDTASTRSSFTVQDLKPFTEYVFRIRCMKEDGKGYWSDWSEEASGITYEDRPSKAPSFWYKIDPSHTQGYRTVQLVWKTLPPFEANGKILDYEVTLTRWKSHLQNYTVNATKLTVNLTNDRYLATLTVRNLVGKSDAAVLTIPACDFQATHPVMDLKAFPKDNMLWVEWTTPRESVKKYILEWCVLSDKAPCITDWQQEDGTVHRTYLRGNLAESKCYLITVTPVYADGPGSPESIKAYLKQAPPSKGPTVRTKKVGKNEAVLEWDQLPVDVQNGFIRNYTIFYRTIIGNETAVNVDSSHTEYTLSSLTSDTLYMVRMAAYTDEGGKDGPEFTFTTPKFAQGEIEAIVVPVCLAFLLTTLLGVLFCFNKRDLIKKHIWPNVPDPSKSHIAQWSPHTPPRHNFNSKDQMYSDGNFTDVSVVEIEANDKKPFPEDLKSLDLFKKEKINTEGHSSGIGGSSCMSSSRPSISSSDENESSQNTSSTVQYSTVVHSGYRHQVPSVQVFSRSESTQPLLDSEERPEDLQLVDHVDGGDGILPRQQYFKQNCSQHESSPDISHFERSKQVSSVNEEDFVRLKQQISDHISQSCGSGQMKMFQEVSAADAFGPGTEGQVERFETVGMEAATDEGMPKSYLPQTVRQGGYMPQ
# Assays:
# gp130-Fc fusion protein [1] = target: T1, gp130-Fc fusion protein; assay: competition ELISA: OSM-GST titrated against plate-bound wt OSM for gp130-Fc; mean
# Procedure: (§1) Plates were washed (×6 in PBS 0.05% tween 20, using Skatron Plate washer), tapped dry and blocked to reduce non-specific binding (200 µl/well, 1% BSA/PBS). Following 1 h incubation (room temperature on a shaking platform) the plates were tapped dry and wild type (wt) or mutant OSM-GST from Example 9b added (50 µl/well, 20–0.002 µg/ml, titrated in 1%BSA/PBS). As a positive control polyclonal anti-human OSM antibody (R&D Systems) was also tested (20–0.02 µg/ml). […] Following a 5 h incubation (room temperature on a shaking platform) the plates were washed (×6) and developed using ELISA Amplification System (Life Technologies) as manufacturer's instructions and the OD measured at 490 nm.
# gp130 on HepG2 B6 cells = target: T2, gp130 on HepG2 B6 cells; assay: cell-based or functional assay
# gp130-Fc fusion protein [2] = target: T1, gp130-Fc fusion protein; assay: competition ELISA: OSM-GST titrated against plate-bound wt OSM for gp130-Fc; single experiment
# Procedure: as §1
Binder,IC50 (gp130-Fc fusion protein [1]),sPAP HepG2 B6 assay: Expt 1 % (EC50 as % of wild type EC50) (gp130 on HepG2 B6 cells),sPAP HepG2 B6 assay: Expt 1 EC50 (gp130 on HepG2 B6 cells),sPAP HepG2 B6 assay: Expt 2 % (EC50 as % of wild type EC50) (gp130 on HepG2 B6 cells),sPAP HepG2 B6 assay: Expt 2 EC50 (gp130 on HepG2 B6 cells),sPAP HepG2 B6 assay: Mean % of wild type EC50 (gp130 on HepG2 B6 cells),IC50 (gp130-Fc fusion protein [2])
"wild type OSM-GST fusion (ligand, pGEX-derived fusion; also called wt OSM-GST; GST-hOSM; not shown: glutathione S-transferase (GST) encoded by modified pGEX-3X (Pharmacia), N-terminal, up to the Factor Xa site region sho) AAIGSCSKEYRVLLGQLQKQTDLMQDTSRLLDPYIRIQGLDVPKLREHCRERPGAFPSEETLRGLGRRGFLQTLNATLGCVLHRLADLEQRLPKAQDLERSGLNIEDLEKLQMARPNILGLRNNIYCMAQLLDNSDTAEPTKAGRGASQPPTPTPASDAFQRKLEGCRFLHGYHRFMHSVGRVFSKWGESPNRSRR",0.139 µg/mL,100%,0.024 µg/mL,100%,0.032 µg/mL,100%,–
"OSM-GST mutant G120A (ligand, not shown: a dimerising Fc or GST; large carriers; small tags and cut ends, Alanine mutant of m4; also called (20)G120; 20 G120A) AAIGSCSKEYRVLLGQLQKQTDLMQDTSRLLDPYIRIQGLDVPKLREHCRERPGAFPSEETLRGLGRRGFLQTLNATLGCVLHRLADLEQRLPKAQDLERSGLNIEDLEKLQMARPNILALRNNIYCMAQLLDNSDTAEPTKAGRGASQPPTPTPASDAFQRKLEGCRFLHGYHRFMHSVGRVFSKWGESPNRSRR",3.09 µg/mL,–,–,–,–,–,3.65 µg/mL and 2.68 µg/mL and 2.95 µg/mL
"OSM-GST mutant E9A (ligand, not shown: a dimerising Fc or GST; large carriers; small tags and cut ends, Alanine mutant of m4; also called (3)E9A; 3 E9A) AAIGSCSKAYRVLLGQLQKQTDLMQDTSRLLDPYIRIQGLDVPKLREHCRERPGAFPSEETLRGLGRRGFLQTLNATLGCVLHRLADLEQRLPKAQDLERSGLNIEDLEKLQMARPNILGLRNNIYCMAQLLDNSDTAEPTKAGRGASQPPTPTPASDAFQRKLEGCRFLHGYHRFMHSVGRVFSKWGESPNRSRR",0.156 µg/mL,98%,0.0236 µg/mL,27%,0.0089 µg/mL,62.5%,0.208 µg/mL and 0.163 µg/mL and 0.097 µg/mL
"OSM-GST mutant K19A (ligand, Alanine mutant of m4; also called (12)K19A; 12 K19A; not shown: Its linker is left out) AAIGSCSKEYRVLLGQLQAQTDLMQDTSRLLDPYIRIQGLDVPKLREHCRERPGAFPSEETLRGLGRRGFLQTLNATLGCVLHRLADLEQRLPKAQDLERSGLNIEDLEKLQMARPNILGLRNNIYCMAQLLDNSDTAEPTKAGRGASQPPTPTPASDAFQRKLEGCRFLHGYHRFMHSVGRVFSKWGESPNRSRR",0.116 µg/mL,98%,0.0236 µg/mL,37%,0.0119 µg/mL,67.5%,–
"OSM-GST mutant D26A (ligand, not shown: a dimerising Fc or GST; large carriers; small tags and cut ends, Alanine mutant of m4; also called (27)D26A; 27 D26A) AAIGSCSKEYRVLLGQLQKQTDLMQATSRLLDPYIRIQGLDVPKLREHCRERPGAFPSEETLRGLGRRGFLQTLNATLGCVLHRLADLEQRLPKAQDLERSGLNIEDLEKLQMARPNILGLRNNIYCMAQLLDNSDTAEPTKAGRGASQPPTPTPASDAFQRKLEGCRFLHGYHRFMHSVGRVFSKWGESPNRSRR",0.31 µg/mL,81%,0.0195 µg/mL,79%,0.0255 µg/mL,80%,0.17 µg/mL and 0.28 µg/mL and 0.481 µg/mL
"OSM-GST mutant G15A (ligand, Alanine mutant of m4; also called (8)G15A; 8 G15A; not shown: Its linker is left out) AAIGSCSKEYRVLLAQLQKQTDLMQDTSRLLDPYIRIQGLDVPKLREHCRERPGAFPSEETLRGLGRRGFLQTLNATLGCVLHRLADLEQRLPKAQDLERSGLNIEDLEKLQMARPNILGLRNNIYCMAQLLDNSDTAEPTKAGRGASQPPTPTPASDAFQRKLEGCRFLHGYHRFMHSVGRVFSKWGESPNRSRR",0.155 µg/mL,87%,0.021 µg/mL,55%,0.0178 µg/mL,71%,0.09 µg/mL and 0.203 µg/mL and 0.171 µg/mL
"OSM-GST mutant D22A (ligand, not shown: a dimerising Fc or GST; large carriers; small tags and cut ends, Alanine mutant of m4; also called (15)D22; 15 D22) AAIGSCSKEYRVLLGQLQKQTALMQDTSRLLDPYIRIQGLDVPKLREHCRERPGAFPSEETLRGLGRRGFLQTLNATLGCVLHRLADLEQRLPKAQDLERSGLNIEDLEKLQMARPNILGLRNNIYCMAQLLDNSDTAEPTKAGRGASQPPTPTPASDAFQRKLEGCRFLHGYHRFMHSVGRVFSKWGESPNRSRR",0.071 µg/mL,152%,0.0367 µg/mL,50%,0.016 µg/mL,101%,0.04 µg/mL and 0.08 µg/mL and 0.092 µg/mL
"OSM-GST mutant K8A (ligand, not shown: a dimerising Fc or GST; large carriers; small tags and cut ends, Alanine mutant of m4; also called (2)K8A; 2 K8A) AAIGSCSAEYRVLLGQLQKQTDLMQDTSRLLDPYIRIQGLDVPKLREHCRERPGAFPSEETLRGLGRRGFLQTLNATLGCVLHRLADLEQRLPKAQDLERSGLNIEDLEKLQMARPNILGLRNNIYCMAQLLDNSDTAEPTKAGRGASQPPTPTPASDAFQRKLEGCRFLHGYHRFMHSVGRVFSKWGESPNRSRR",0.138 µg/mL,66%,0.016 µg/mL,38%,0.0125 µg/mL,52%,–

# Other lines, results leading:
IC50 (gp130-Fc fusion protein [1]),sPAP HepG2 B6 assay: Expt 1 % (EC50 as % of wild type EC50) (gp130 on HepG2 B6 cells),sPAP HepG2 B6 assay: Expt 1 EC50 (gp130 on HepG2 B6 cells),sPAP HepG2 B6 assay: Expt 2 % (EC50 as % of wild type EC50) (gp130 on HepG2 B6 cells),sPAP HepG2 B6 assay: Expt 2 EC50 (gp130 on HepG2 B6 cells),sPAP HepG2 B6 assay: Mean % of wild type EC50 (gp130 on HepG2 B6 cells),IC50 (gp130-Fc fusion protein [2]),Binder
5 µg/mL,–,–,–,–,–,4.13 µg/mL and 5.57 µg/mL and 4.1 µg/mL and 6.2 µg/mL,"OSM-GST mutant Q20A (ligand, Alanine mutant of m4; also called (13)Q20A; 13 Q20A; not shown: Its linker is left out) AAIGSCSKEYRVLLGQLQKATDLMQDTSRLLDPYIRIQGLDVPKLREHCRERPGAFPSEETLRGLGRRGFLQTLNATLGCVLHRLADLEQRLPKAQDLERSGLNIEDLEKLQMARPNILGLRNNIYCMAQLLDNSDTAEPTKAGRGASQPPTPTPASDAFQRKLEGCRFLHGYHRFMHSVGRVFSKWGESPNRSRR"
2.96 µg/mL,157%,0.0379 µg/mL,154%,0.0497 µg/mL,156%,–,"OSM-GST mutant N123A (ligand, not shown: a dimerising Fc or GST; large carriers; small tags and cut ends, Alanine mutant of m4; also called (22)N123A; 22 N123A) AAIGSCSKEYRVLLGQLQKQTDLMQDTSRLLDPYIRIQGLDVPKLREHCRERPGAFPSEETLRGLGRRGFLQTLNATLGCVLHRLADLEQRLPKAQDLERSGLNIEDLEKLQMARPNILGLRANIYCMAQLLDNSDTAEPTKAGRGASQPPTPTPASDAFQRKLEGCRFLHGYHRFMHSVGRVFSKWGESPNRSRR"
–,–,–,–,–,–,> 10 µg/mL,"OSM-GST mutant Q16A (ligand, Alanine mutant of m4; also called (9)Q16A; 9 Q16A; not shown: Its linker is left out) AAIGSCSKEYRVLLGALQKQTDLMQDTSRLLDPYIRIQGLDVPKLREHCRERPGAFPSEETLRGLGRRGFLQTLNATLGCVLHRLADLEQRLPKAQDLERSGLNIEDLEKLQMARPNILGLRNNIYCMAQLLDNSDTAEPTKAGRGASQPPTPTPASDAFQRKLEGCRFLHGYHRFMHSVGRVFSKWGESPNRSRR"
2.53 µg/mL,269%,0.0657 µg/mL,171%,0.0549 µg/mL,220%,2.96 µg/mL and 1.99 µg/mL and 2.64 µg/mL,"OSM-GST mutant L13A (ligand, Alanine mutant of m4; also called (6)L13A; 6 L13A; not shown: Its linker is left out) AAIGSCSKEYRVALGQLQKQTDLMQDTSRLLDPYIRIQGLDVPKLREHCRERPGAFPSEETLRGLGRRGFLQTLNATLGCVLHRLADLEQRLPKAQDLERSGLNIEDLEKLQMARPNILGLRNNIYCMAQLLDNSDTAEPTKAGRGASQPPTPTPASDAFQRKLEGCRFLHGYHRFMHSVGRVFSKWGESPNRSRR"
